According to PMC5063977 (The Journal of Biological Chemistry, 2016):
One block for each substance: values may come before it.

Columns and labels:
[1] = system: RAMP-CLR complexes (RAMP1, RAMP2, RAMP3); experiment: (Ca^2+)i mobilization with inhibitor pretreatment, HEK-293 cells, all RAMP-CLR complexes; assay type: cell-based, human; details: HEK-293, any RAMP-CLR complex
Experimental: FIGURE 8. CLR in combination with each RAMP generates receptors that mobilize (Ca^2+)i release when expressed in HEK-293 cells. (Ca^2+)i mobilization was determined from HEK-293 cells transiently transfected with CLR and RAMP1 (n = 5) (A), RAMP2 (n = 5) (B), and RAMP3 (n = 5) (C). […] Data are expressed as percentage of the maximal (Ca^2+)i release as determined using 10 μM ionomycin. To determine the contribution made by different G proteins to the (Ca^2+)i response, cells were preincubated with either PTX (to inhibit Gαi) or YM-254890 (a selective Gαq inhibitor). All values are means ± S.E. of n individual data sets.
HEK-293 cells, provided by Dr. Jügen Müller (University of Aston), were cultured in DMEM supplemented with 10% heat-inactivated FBS and kept at 37 °C in a humidified 95% air, 5% CO2 incubator. HEK-293S cells (a gift from AstraZeneca) were cultured in DMEM supplemented with 8% heat-inactivated FBS and kept at 37 °C in a humidified 95% air, 5% CO2 incubator. HEK-293 cells were transfected with FuGENE 6 (Roche Applied Science) in accordance with the manufacturer's instructions using a 1:3 (w:v) DNA:FuGENE ratio and a 1:1 ratio of RAMP to CLR. HEK-293S cells were seeded into 96-well poly-D-lysine-coated plates at a density of 15,000 cells/well (determined using a Countess^TM cell counter, Invitrogen) 1 day prior to transfection. HEK-293S cells were transiently transfected as described previously ([38]) using a 1:1 ratio of RAMP to CLR. The transfected cell lines were grown for 24–48 h prior to assaying.
Transfected HEK-293 cells were grown to confluence in black, clear bottomed, 96-well plates. […] Ligands were added robotically using a Mithras LB 940 multimode microplate reader in the range of 10 pM to 1 μM, and fluorescence was determined immediately post-injection with an excitation wavelength set to 485 nm and an emission wavelength set to 535 nm. […] Peak magnitude was calculated using five-point smoothing followed by correction against background fluorescence. […]

[2] = target: RAMP2-CLR complex expressed in HEK-293S cells (human) (UniProt Q16602)
RAMP2-CLR complex expressed in HEK-293S cells (human), sequence (Q16602 23-461, chain 1 of 2): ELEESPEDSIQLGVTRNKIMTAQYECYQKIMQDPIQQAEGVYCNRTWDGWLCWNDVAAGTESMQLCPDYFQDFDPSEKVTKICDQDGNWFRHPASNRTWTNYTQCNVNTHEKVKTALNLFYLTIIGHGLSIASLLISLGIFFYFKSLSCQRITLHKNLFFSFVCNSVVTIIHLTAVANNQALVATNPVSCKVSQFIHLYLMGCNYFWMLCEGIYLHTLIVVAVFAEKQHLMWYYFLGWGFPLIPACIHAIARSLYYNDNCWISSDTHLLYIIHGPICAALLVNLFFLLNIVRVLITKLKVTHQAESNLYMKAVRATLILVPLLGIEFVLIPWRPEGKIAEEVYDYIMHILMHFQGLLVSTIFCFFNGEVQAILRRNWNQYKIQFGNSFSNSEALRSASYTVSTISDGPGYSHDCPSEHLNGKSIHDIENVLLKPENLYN
RAMP2-CLR complex expressed in HEK-293S cells (human), sequence (O60895 43-175, chain 2 of 2, further chain): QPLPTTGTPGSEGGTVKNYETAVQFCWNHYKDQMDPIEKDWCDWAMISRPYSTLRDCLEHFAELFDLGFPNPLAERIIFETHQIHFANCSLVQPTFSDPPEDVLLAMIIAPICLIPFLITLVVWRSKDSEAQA

[3] = target: RAMP1-CLR complex expressed in HEK-293 cells (human) (UniProt Q16602)
RAMP1-CLR complex expressed in HEK-293 cells (human), sequence (Q16602 23-461, chain 1 of 2): as the sequence (Q16602 23-461, chain 1 of 2) above
RAMP1-CLR complex expressed in HEK-293 cells (human), sequence (O60894 27-148, chain 2 of 2, further chain): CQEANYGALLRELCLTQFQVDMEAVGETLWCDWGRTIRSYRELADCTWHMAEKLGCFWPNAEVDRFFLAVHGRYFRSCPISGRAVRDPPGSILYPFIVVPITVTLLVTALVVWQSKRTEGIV

[4] = target: RAMP3-CLR complex expressed in HEK-293 cells (human) (UniProt Q16602)
RAMP3-CLR complex expressed in HEK-293 cells (human), sequence (Q16602 23-461, chain 1 of 2): as the sequence (Q16602 23-461, chain 1 of 2) above
RAMP3-CLR complex expressed in HEK-293 cells (human), sequence (O60896 24-148, chain 2 of 2, further chain): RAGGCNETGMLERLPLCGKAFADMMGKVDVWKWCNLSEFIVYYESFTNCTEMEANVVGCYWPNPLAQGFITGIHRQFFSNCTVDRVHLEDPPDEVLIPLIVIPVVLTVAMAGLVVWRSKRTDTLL

[5] = target: RAMP1-CLR complex expressed in HEK-293S cells (human) (UniProt Q16602)
RAMP1-CLR complex expressed in HEK-293S cells (human), sequence (Q16602 23-461, chain 1 of 2): as the sequence (Q16602 23-461, chain 1 of 2) above
RAMP1-CLR complex expressed in HEK-293S cells (human), sequence (O60894 27-148, chain 2 of 2, further chain): as the sequence (O60894 27-148, chain 2 of 2, further chain) above

[6] = target: RAMP3-CLR complex expressed in HEK-293S cells (human) (UniProt Q16602)
RAMP3-CLR complex expressed in HEK-293S cells (human), sequence (Q16602 23-461, chain 1 of 2): as the sequence (Q16602 23-461, chain 1 of 2) above
RAMP3-CLR complex expressed in HEK-293S cells (human), sequence (O60896 24-148, chain 2 of 2, further chain): as the sequence (O60896 24-148, chain 2 of 2, further chain) above

[7] = target: RAMP2-CLR complex expressed in HEK-293 cells (human) (UniProt Q16602)
RAMP2-CLR complex expressed in HEK-293 cells (human), sequence (Q16602 23-461, chain 1 of 2): as the sequence (Q16602 23-461, chain 1 of 2) above
RAMP2-CLR complex expressed in HEK-293 cells (human), sequence (O60895 43-175, chain 2 of 2, further chain): as the sequence (O60895 43-175, chain 2 of 2, further chain) above

[8] = target: RAMP2-CLR complex expressed in HEK-293S cells (human) (UniProt Q16602); remark: listed apart in the source
[9] = target: RAMP1-CLR complex expressed in HEK-293S cells (human) (UniProt Q16602); remark: listed apart in the source
[10] = target: RAMP3-CLR complex expressed in HEK-293S cells (human) (UniProt Q16602); remark: listed apart in the source
[11] = target: RAMP1-CLR heterodimer expressed in S. cerevisiae (human) (UniProt Q16602)
RAMP1-CLR heterodimer expressed in S. cerevisiae (human), sequence (Q16602 23-461, chain 1 of 2): as the sequence (Q16602 23-461, chain 1 of 2) above
RAMP1-CLR heterodimer expressed in S. cerevisiae (human), sequence (O60894 27-148, chain 2 of 2, further chain): as the sequence (O60894 27-148, chain 2 of 2, further chain) above

[12] = target: RAMP2-CLR heterodimer expressed in S. cerevisiae (human) (UniProt Q16602)
RAMP2-CLR heterodimer expressed in S. cerevisiae (human), sequence (Q16602 23-461, chain 1 of 2): as the sequence (Q16602 23-461, chain 1 of 2) above
RAMP2-CLR heterodimer expressed in S. cerevisiae (human), sequence (O60895 43-175, chain 2 of 2, further chain): as the sequence (O60895 43-175, chain 2 of 2, further chain) above

[13] = target: RAMP3-CLR heterodimer expressed in S. cerevisiae (human) (UniProt Q16602)
RAMP3-CLR heterodimer expressed in S. cerevisiae (human), sequence (Q16602 23-461, chain 1 of 2): as the sequence (Q16602 23-461, chain 1 of 2) above
RAMP3-CLR heterodimer expressed in S. cerevisiae (human), sequence (O60896 24-148, chain 2 of 2, further chain): as the sequence (O60896 24-148, chain 2 of 2, further chain) above

[14] = target: RAMP1-CLR complex expressed in HEK-293 cells (human) (UniProt Q16602); remark: listed apart in the source
[15] = target: RAMP3-CLR complex expressed in HEK-293 cells (human) (UniProt Q16602); remark: listed apart in the source
[16] = target: RAMP2-CLR complex expressed in HEK-293 cells (human) (UniProt Q16602); remark: listed apart in the source
[17] = target: RAMP1-CLR complex expressed in HEK-293 cells (human) (UniProt Q16602); remark: listed apart in the source
[18] = target: RAMP3-CLR complex expressed in HEK-293 cells (human) (UniProt Q16602); remark: listed apart in the source
[19] = target: RAMP2-CLR complex expressed in HEK-293 cells (human) (UniProt Q16602); remark: listed apart in the source

Substance: pertussis toxin [PTX]
- effect of PTX on calcium released in response to the three ligands [1]: no effect

- pEC50, (Ca^2+)i mobilization in HEK-293S cells [2]: 7.42 -log10
- pKa (operational model of agonism), (Ca^2+)i mobilization in HEK-293S cells [2]: 7.33 -log10
- pEC50, (Ca^2+)i mobilization in HEK-293 cells [3]: 6.76 -log10
- pKa (operational model of agonism), (Ca^2+)i mobilization in HEK-293 cells [3]: 6.64 -log10
- pEC50, (Ca^2+)i mobilization in HEK-293 cells [4]: 8.05 -log10
- pKa (operational model of agonism), (Ca^2+)i mobilization in HEK-293 cells [4]: 7.95 -log10
- pEC50, (Ca^2+)i mobilization in HEK-293S cells [5]: 6.94 -log10
- pKa (operational model of agonism), (Ca^2+)i mobilization in HEK-293S cells [5]: 6.76 -log10
- pEC50, (Ca^2+)i mobilization in HEK-293S cells [6]: 7.44 -log10
- pKa (operational model of agonism), (Ca^2+)i mobilization in HEK-293S cells [6]: 7.35 -log10
- pEC50, (Ca^2+)i mobilization in HEK-293 cells [7]: 7.41 -log10
- pKa (operational model of agonism), (Ca^2+)i mobilization in HEK-293 cells [7]: 7.15 -log10
- pEC50, cAMP accumulation in HEK-293S cells, without PTX [8]: 8.57 -log10
- pEC50, cAMP accumulation in HEK-293S cells, with PTX pretreatment [9]: 8.78 -log10
- pEC50, cAMP accumulation in HEK-293S cells, without PTX [9]: 8.74 -log10
- pEC50, cAMP accumulation in HEK-293S cells, with PTX pretreatment [10]: 7.79 -log10
- pEC50, cAMP accumulation in HEK-293S cells, without PTX [10]: 8.01 -log10
- pEC50, yeast growth reporter, GPA1/Gαi chimera strain [11]: 8.57 -log10
- pEC50, yeast growth reporter, GPA1/Gαq chimera strain [11]: 7.99 -log10
- pEC50, yeast growth reporter, GPA1/Gαs chimera strain [11]: 7.22 -log10
- pKa (operational model of agonism), yeast growth reporter, GPA1/Gαi chimera strain [11]: 8.24 -log10
- pKa (operational model of agonism), yeast growth reporter, GPA1/Gαq chimera strain [11]: 7.91 -log10
- pKa (operational model of agonism), yeast growth reporter, GPA1/Gαs chimera strain [11]: 7.31 -log10
- pEC50, yeast growth reporter, GPA1/Gαi chimera strain [12]: 8.42 -log10
- pEC50, yeast growth reporter, GPA1/Gαq chimera strain [12]: 9.22 -log10
- pEC50, yeast growth reporter, GPA1/Gαs chimera strain [12]: 8.05 -log10
- pKa (operational model of agonism), yeast growth reporter, GPA1/Gαi chimera strain [12]: 8.3 -log10
- pKa (operational model of agonism), yeast growth reporter, GPA1/Gαq chimera strain [12]: 9.16 -log10
- pKa (operational model of agonism), yeast growth reporter, GPA1/Gαs chimera strain [12]: 8.1 -log10
- pEC50, yeast growth reporter, GPA1/Gαi chimera strain [13]: 8.49 -log10
- pEC50, yeast growth reporter, GPA1/Gαq chimera strain [13]: 6.76 -log10
- pEC50, yeast growth reporter, GPA1/Gαs chimera strain [13]: 8.85 -log10
- pKa (operational model of agonism), yeast growth reporter, GPA1/Gαi chimera strain [13]: 8.3 -log10
- pKa (operational model of agonism), yeast growth reporter, GPA1/Gαq chimera strain [13]: 6.6 -log10
- pKa (operational model of agonism), yeast growth reporter, GPA1/Gαs chimera strain [13]: 8.61 -log10
- pEC50, cAMP accumulation in HEK-293 cells, with PTX pretreatment [14]: 9.15 -log10
- pEC50, cAMP accumulation in HEK-293 cells, without PTX [14]: 7.93 -log10
- pKa (operational model of agonism), cAMP accumulation in HEK-293 cells, with PTX pretreatment [14]: 8.56 -log10
- pKa (operational model of agonism), cAMP accumulation in HEK-293 cells, without PTX [14]: 7.7 -log10
- pEC50, cAMP accumulation in HEK-293 cells, with PTX pretreatment [15]: 8.74 -log10
- pEC50, cAMP accumulation in HEK-293 cells, without PTX [15]: 9.1 -log10
- pKa (operational model of agonism), cAMP accumulation in HEK-293 cells, with PTX pretreatment [15]: 8.43 -log10
- pKa (operational model of agonism), cAMP accumulation in HEK-293 cells, without PTX [15]: 9.08 -log10
- pKa (operational model of agonism), cAMP accumulation in HEK-293 cells, with PTX pretreatment [16]: 8.84 -log10
- pEC50, cAMP accumulation in HEK-293 cells [17]: 7.93 -log10
- pKa (operational model of agonism), cAMP accumulation in HEK-293 cells [17]: 7.76 -log10
- pEC50, cAMP accumulation in HEK-293 cells [18]: 9.14 -log10
- pKa (operational model of agonism), cAMP accumulation in HEK-293 cells [18]: 9 -log10
- pEC50, cAMP accumulation in HEK-293 cells [19]: 7.48 -log10
- pKa (operational model of agonism), cAMP accumulation in HEK-293 cells [19]: 7.16 -log10
Substance: hAM2 (1–47) (peptide)
